# Assay results reported in patent US20190183138A1, “MILK COAGULANT AND METHOD FOR PRODUCING CHEESE” (CHINA AGRICULTURAL UNIVERSITY, priority 2017, published 2019).
# Tested on: 12% skim milk
# Assay: Milk clotting activity (MCA) assay, curd formation time
# Format: biochemical
# Details: 12% skim milk in 10 mM CaCl2, pH 6.5, 37° C.; FIG. 5
# Description: The MCA of the C. otophyllum proteases was determined using a modified method of He et al. (2011). One milliliter of substrate (12% skim milk in 10 mM CaCl2, pH 6.5) was incubated under 37° C. for 5 min, then 0.1 mL of the protease extracted solution was added. The time needed for curd formation was recorded and the MCA was expressed in Soxhlet units (SU). One SU of MCA was defined as the amount of the protease extracted solution required to clot 1 mL of substrate within 40 min at 37° C.
# where V stands for the volume of the substrate (mL); v stands for the volume of the protease extract; and t stands for the milk-clotting time (s).
# The C. otophyllum proteases were extracted as described by Huang et al. (2011) with some modifications. The C. otophyllum leaves were cut into pieces, mixed with a buffer at different solid-liquid ratios (i.e. ratio of mass to volume) for extraction, and then left for 2 h under 4° C., thus obtaining an extracted solution. After successive filtration through 4 layers of cheesecloth and a 0.22-μm membrane, the filtrate was concentrated by ultrafiltration with a 10-kDa molecular weight cut-off membrane at 8000 × g for 40 minutes at 4° C., with the retentate obtained as the concentrated solution of C. otophyllum proteases, which was assayed for protein concentration following the method of Bradford (1976) and curd formation time for 12% (w/v) skim milk.
molecule,measurement,value
"papain (protein, UniProt P00784 134-345, looked up, cysteine protease from Sigma-Aldrich used as comparison) Papain: IPEYVDWRQKGAVTPVKNQGSCGSCWAFSAVVTIEGIIKIRTGNLNEYSEQELLDCDRRSYGCNGGYPWSALQLVAQYGIHYRNTYPYEGVQRYCRSREKGPYAAKTDGVRQVQPYNEGALLYSIANQPVSVVLEAAGKDFQLYRGGIFVGPCGNKVDHAVAAVGYGPNYILIKNSWGTGWGENGYIRIKRGTGNSYGVCGLYTSSFYPVKN",MCA (milk-clotting activity),100.2 SU/mg
